# Assay results published in US20240101675A1 (BIOLOJIC DESIGN, published 2024).
# Changes are numbered by the printed parent chain.
# T1: recombinant human OX40 tagged with histidine tag (hOX40-His) (human, UniProt P43489 29-216)
# T1 construct: bought (Reprokine); also called hOX-His; not shown: histidine tag
# T1 sequence (looked up): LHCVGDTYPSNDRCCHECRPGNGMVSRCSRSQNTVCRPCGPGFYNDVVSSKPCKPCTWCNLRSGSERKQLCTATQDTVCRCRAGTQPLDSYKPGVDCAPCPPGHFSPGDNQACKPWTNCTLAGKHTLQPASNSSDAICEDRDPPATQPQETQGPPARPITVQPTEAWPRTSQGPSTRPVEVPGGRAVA
# T2: recombinant human GITR tagged with histidine tag (hGITR-His) (human, UniProt Q9Y5U5 26-161, limits assumed)
# T2 construct: bought (Reprokine); not shown: histidine tag
# T2 sequence (looked up): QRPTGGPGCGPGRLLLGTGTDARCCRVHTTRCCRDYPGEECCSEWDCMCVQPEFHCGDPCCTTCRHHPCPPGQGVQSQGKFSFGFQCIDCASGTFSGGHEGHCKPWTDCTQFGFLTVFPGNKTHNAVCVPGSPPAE
# B1: BDG33.004 (antibody, human IgG1, V domains shown)
# VH: QMQLVESGGGVVQPGRSLRLSCAASGFTFRTYGMHWVRQAPGKGLEWVAVIWYDGSNKHYADSVKGRFTITRDNSKNTLNLQMNSLRAEDTAVYYCARAPQWMLVAEAFDLWGQGTMVTVSS
# VL: SYVLTQPPSVSVAPGQTARITCGGNLIGSKLVHWYQQKPGQAPVLVVYDDSDRPSRIPERFSGSNSGNTATLTISRVEAGDEADYYCQVWDSSSDHVVFGGGTKLTVL
# notes: human IgG1; also called BGD33.004; Clone C6 as IgG1
# B2: C6 (yeast-displayed scFv clone) (scFv, V domains shown)
# VH: B1 VH
# VL: B1 VL
# notes: also called Clone C6; C6-VH-L-VL; not shown: linker
# B3: BDG33.003 (antibody, human IgG1, V domains shown)
# VH: B1 VH with M103E, V105T, L111I
# VL: B1 VL with R56L, H96G
# notes: also called BGD33.003; Clone C2 as IgG1
# B4: C26 (scFv, V domains shown)
# VH: B1 VH with M103E, V105T
# VL: B1 VL with L26I, S51G, R56G, S92T
# notes: also called C26-VH-L-VL
# B5: C2 (yeast-displayed scFv clone) (scFv, V domains shown)
# VH: B1 VH with M103E, V105T, L111I
# VL: B1 VL with R56L, H96G
# notes: also called Clone C2; C2-VH-L-VL; not shown: linker
# B6: C39 (scFv, V domains shown)
# VH: B1 VH with M103E, V105T
# VL: B1 VL with I27L, R56W, S92T
# notes: also called C39-VH-L-VL
# B7: C45 (scFv, V domains shown)
# VH: B1 VH with M103E, V105T, A106S
# VL: B1 VL with R56E, H96G
# notes: also called C45-VH-L-VL
# B8: C9 (yeast-displayed scFv clone) (scFv, V domains shown)
# VH: B1 VH with A99S, M103E, L104W, A106H
# VL: B1 VL with S51G, R56W, H96G
# notes: also called Clone C9; C9-VH-L-VL; not shown: linker
# B9: C17 (scFv, V domains shown)
# VH: B1 VH with M103E, V105T, A106S
# VL: B1 VL with R56A, S92T
# notes: also called C17-VH-L-VL
# B10: C43 (scFv, V domains shown)
# VH: B1 VH with M103Q, L111I
# VL: B1 VL with R56A, S92T, H96G
# notes: also called C43-VH-L-VL
# B11: C13 (scFv, V domains shown)
# VH: B1 VH with M103E
# VL: B1 VL with I27L, S51G, R56L, S92T
# notes: also called C13-VH-L-VL
# B12: C15 (scFv, V domains shown)
# VH: B1 VH with M103E
# VL: B1 VL with S51G, R56W, S93G, H96G
# notes: also called C15-VH-L-VL
# B13: C40 (yeast-displayed scFv clone) (scFv, V domains shown)
# VH: B1 VH with A99S, M103E, L104W, A106H
# VL: B1 VL with L26N, S92T, H96G
# notes: also called C40-VH-L-VL; not shown: linker
# B14: C37 (scFv, V domains shown)
# VH: B1 VH with M103E, L111M
# VL: B1 VL
# notes: also called C37-VH-L-VL
# B15: 3212ACOXC14 (OX40 library) (scFv, V domains shown)
# VH: QVQLVESGGGVVQPGRSLRLDCKASGIEFSNSGMHWVRQAPGKGLEWVAVIWYDGSKRYYADSVKGRFTISRDNSKNTLFLQMNSLRAEDTAVYYCATNDDYWGQGTLVTVSS
# VL: EIVLTQSPATLSLSPGERATLSCRASQSVEHYLAWYQQKPGQAPRLLIYDASNRATGIPARFSGSGSGTDFTLTISSLEPEDFAVYYCQQYSNWPLTFGQGTKVEIK
# notes: not shown: linker
# B16: 1B_seq96_13753_B01_4279975 (OX40 Library) (scFv, V domains shown)
# VH: B15 VH with E28T
# VL: B15 VL with E30I
# notes: not shown: linker
# B17: BDG32.004 (antibody, human IgG1, V domains shown)
# VH: B15 VH with I27F, E28T, K57L
# VL: B15 VL with E30S, H31D, Y32N, A34Q, S52D, N53T, Y91S, W94L, L96R
# B18: 3212ACOXC21 (OX40 library) (scFv, V domains shown)
# VH: B15 VH with T98S
# VL: B15 VL with E30D, R54F
# notes: not shown: linker
# B19: G8 (GITR Library) (scFv, V domains shown)
# VH: B15 VH with E28T, K57L, T98S
# VL: B15 VL with E30S, H31D, Y32N, S52D, Y91S, W94L, L96R
# notes: not shown: linker
# B20: 3212ACOXC10 (OX40 library) (scFv, V domains shown)
# VH: B15 VH with E28D, Y59L, T98S
# VL: B15 VL with E30I, S92D
# notes: not shown: linker
# B21: 3212ACOXC23 (OX40 library) (scFv, V domains shown)
# VH: B15 VH with E28D, V48L, T98S
# VL: B15 VL with E30I, S92E
# notes: not shown: linker
# B22: 3212ACOXC61 (OX40 library) (scFv, V domains shown)
# VH: B15 VH with E28A, R58T
# VL: B15 VL with E30I, S92T
# notes: not shown: linker
# B23: 3212ACOXC31 (OX40 library) (scFv, V domains shown)
# VH: B15 VH with E28T, R58A
# VL: B15 VL with E30Y, S52E, S92N, N93D
# notes: not shown: linker
# B24: OX-Clone71 (OX40 library) (scFv, V domains shown)
# VH: B15 VH with E28D, T98S
# VL: B15 VL with R54P
# notes: not shown: linker
# B25: G5 (GITR Library) (scFv, V domains shown)
# VH: B15 VH with Q13H, L20V, E28T, K57L
# VL: B15 VL with E30S, H31D, Y32N, S52D, E79A, Y91S, W94L, L96R
# notes: not shown: linker
# B26: OX-Clone36 (OX40 library) (scFv, V domains shown)
# VH: B15 VH with E28D, T98S
# VL: B15 VL with E30I, S92D
# notes: not shown: linker
# What was measured:
# recombinant human IL-13 = molecular target: T3, recombinant human IL-13 (human, UniProt P35225 35-146); assay: SPR, IgG captured, hIL-13 as analyte, steady state
# T3 construct: also called rh-IL-13; rhIL-13
# T3 sequence (P35225 35-146 limits assumed): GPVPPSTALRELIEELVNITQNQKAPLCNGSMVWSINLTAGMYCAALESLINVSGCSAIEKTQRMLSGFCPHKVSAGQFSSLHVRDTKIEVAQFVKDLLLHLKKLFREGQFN
# Experimental: Subsequent to a cycle, the analyte and tested antibody were stripped from the chip and new tested Ab was loaded on the chip as described above. KD was determined at a steady state condition.
# human TSLP = molecular target: T4, human TSLP (human, UniProt Q969D9 29-159); assay: SPR (ProteOn XPR36), IgG captured, hTSLP as analyte 3.2 to 0.2 nM
# T4 construct: also called hTSLP; h-TSLP
# [1] = molecular target: T5, recombinant human IL-13 (rh-IL-13)-Fc (human, UniProt P35225 35-146, limits assumed); assay: yeast surface display scFv, flow cytometry, 10 nM rh-IL-13
# T5 construct: used for yeast surface display labelling; not shown: Fc (detected with anti human Fc)
# T5 sequence (P35225 35-146 limits assumed): as above
# [2] = molecular target: T6, recombinant human TSLP (hTSLP)-Fc (human, UniProt Q969D9 29-159, limits assumed); assay: yeast surface display flow cytometry, 10 nM hTSLP-Fc; MFI normalized to expression and to the positive control
# T6 construct: used for yeast surface display labelling; also called rhTSLP; not shown: Fc
# [3] = molecular target: T5, recombinant human IL-13 (rh-IL-13)-Fc; assay: yeast surface display flow cytometry, 10 nM rh-IL-13-Fc; MFI normalized to expression and to the positive control
# Experimental: Isolated clones from the final sort were sequenced by extraction of plasmid DNA from the yeast clones using a Zymoprep kit (Zymo Research, USA) and the DNA was sequenced. […] Cells were washed and resuspended in ice-cold PBS 0.1% BSA buffer containing a fluorescent labeled secondary antibody as described above for 20 min and analyzed using a flow cytometer.
# [4] = molecular target: T1, recombinant human OX40 tagged with …; assay: yeast surface display scFv, flow cytometry, 90 nM hOX40-His
# [5] = molecular target: T7, recombinant human PD-1 tagged with histidine tag (hPD-1-His) (human, UniProt Q15116 25-167, limits assumed); assay: yeast surface display flow cytometry: scFv on yeast, 30 nM hPD-1-His, anti-His-APC; median RFU
# T7 construct: bought (Reprokine); not shown: histidine tag
# T7 sequence (Q15116 25-167 limits assumed): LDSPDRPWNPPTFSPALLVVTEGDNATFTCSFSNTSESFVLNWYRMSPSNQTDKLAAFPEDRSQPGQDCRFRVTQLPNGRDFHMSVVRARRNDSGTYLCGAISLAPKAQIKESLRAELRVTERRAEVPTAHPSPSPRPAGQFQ
# [6] = molecular target: T1, recombinant human OX40 tagged with …; assay: yeast surface display flow cytometry: scFv on yeast, 90 nM hOX40-His, anti-His-APC; median RFU
# [7] = molecular target: T2, recombinant human GITR tagged with …; assay: direct ELISA, antibody coated, hGITR-His titrated 0 to 865 nM
# Experimental: (§1) IgG binding affinity was examined by ELISA experiments. ELISA plates (Greiner Bio-One-high binding) were coated with 50 ul (100 ng) of the tested antibody and incubated for 1 hour at room temperature. Then plates were washed three times with 300 μl PBS buffer containing 0.05% Tween 20 (PBS-T), blocked with 300μ PBS-T supplemented with 1% to 3% BSA, and incubated for 1 hour at room temperature (RT). Antibodies-coated plates were then washed three times with 300 μl PBS-T and incubated with serial dilutions of test ligand either hPD-1-His, or hOX40-His, or hGITR-His (Reprokine, Israel) in a final volume of 50 ul for 1-3 hours. Plates were then washed three times with 300 μl PBS-T and incubated with 50 μl anti-HIS-HRP conjugate that was diluted 1:300 in PBS (Santa Cruz Biotechnology, USA). After an additional wash step, the reaction was developed with 50 ul tetrametylbenzidine (TMB) reagent (Southern biotech, USA), and stopped with 50 ul 0.5N H₂SO₄. […] The binding affinity was determined by fitting the data to a specific binding non-linear regression model on Prisma 8 GraphPad software.
# ELISA assays were used to analyze the binding affinity of the IgG1 antibodies.
# [8] = molecular target: T7, recombinant human PD-1 tagged with …; assay: direct ELISA: antibody coated on the plate, hPD-1-His titrated, anti-His-HRP
# Experimental: as §1
# [9] = molecular target: T7, recombinant human PD-1 tagged with …; assay: yeast surface display scFv, flow cytometry
# Experimental: (§2) The library was screened on BioRad S3e Fluorescence Activated Cell Sorter (FACS) for high affinity binders of recombinant h-GITR-His, or recombinant h-PD1-His, or recombinant h-OX40-His (Reprokine) using mouse anti Myc-FITC (Santa Cruze, USA) and goat anti-His-APC (Miltenyi Biotec, Germany) for fluorescence labeling. […] The chosen clones were incubated for 1 hour at room temperature with recombinant h-GITR-His, or hPD1-His, or hOX40-His, at the concentrations described in the example section. Cells were washed and resuspended in ice-cold PBS 0.1% BSA buffer containing a fluorescent labeled secondary antibody as described above for 20 min and analyzed using a flow cytometer. The values obtained were normalized to expression levels.
# [10] = molecular target: T2, recombinant human GITR tagged with …; assay: yeast surface display scFv, flow cytometry
# Experimental: as §2
binder,measurement,setting,value
B1,Kd,recombinant human IL-13,57.4 nM
same,Kd,human TSLP,3.33 nM
same,koff,human TSLP,0.00114 s⁻¹
same,kon,human TSLP,344000 M⁻¹ s⁻¹
B2,relative affinity (normalized MFI against the positive control),[1],> 20 % of positive control
B3,Kd,recombinant human IL-13,21.6 nM
same,Kd,human TSLP,4.5 nM
same,koff,human TSLP,0.00129 s⁻¹
same,kon,human TSLP,287000 M⁻¹ s⁻¹
B4,binding result,[2],binds
same,binding result,[3],binds
B5,relative affinity (normalized MFI against the positive control),[1],> 20 % of positive control
B6,binding result,[2],binds
same,binding result,[3],binds
B7,binding result,[2],binds
B8,relative affinity (normalized MFI against the positive control),[1],> 20 % of positive control
B9,binding result,[2],binds
B10,binding result,[2],binds
same,binding result,[3],binds
B11,binding result,[2],binds
B12,binding result,[2],binds
B13,relative affinity (normalized MFI against the positive control),[1],> 20 % of positive control
same,binding result,[2],binds
B14,binding result,[2],binds
same,binding result,[3],binds
B15,binding result,[4],binds
B16,binding result,[5],binds
same,binding result,[6],binds
B17,EC50,[7],~13 nM
same,EC50 (read off the curve),[8],~2 nM
B18,binding result,[4],binds
B19,binding result,[9],binds
same,binding result,[10],binds
B20,binding result,[4],binds
B21,binding result,[5],binds
same,binding result,[6],binds
B22,binding result,[5],binds
same,binding result,[6],binds
B23,binding result,[4],binds
B24,binding result,[4],binds
B25,binding result,[9],binds
same,binding result,[10],binds
B26,binding result,[4],binds
